For assay [1], the target named is T1, virus-like particles (VLPs) of BK polyomavirus VP-1 protein, serotype Ia (BK virus (BKPyV), serotype Ia, UniProt P03088 1-361).
T1 construct: self-assembled native VLPs coated on ELISA plates; also called VLP Ia; BKV VP-1, serotype Ia
T1 chain: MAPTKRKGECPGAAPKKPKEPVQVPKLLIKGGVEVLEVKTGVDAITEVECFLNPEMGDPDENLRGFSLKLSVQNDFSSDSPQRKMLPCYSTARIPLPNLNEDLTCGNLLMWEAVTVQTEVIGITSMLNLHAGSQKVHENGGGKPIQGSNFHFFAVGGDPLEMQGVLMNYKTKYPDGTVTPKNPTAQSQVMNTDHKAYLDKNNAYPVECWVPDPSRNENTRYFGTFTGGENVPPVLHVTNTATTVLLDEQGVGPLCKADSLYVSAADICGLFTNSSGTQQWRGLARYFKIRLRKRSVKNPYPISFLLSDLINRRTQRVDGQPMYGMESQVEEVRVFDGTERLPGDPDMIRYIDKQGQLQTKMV
Put plainly: ELISA on coated VLP; supernatant 1/10. (An ELISA detects its analyte on a solid surface through an enzyme-linked reagent.)
Description: (§1) To do this, the VLPs produced were deposited at a concentration of 1 μg/mL in PBS and incubated overnight at +4° C. The wells were then blocked for 1 h at +37° C. with a PBS/FCS (phosphate-buffered saline/fetal calf serum) mixture. After dilution in a dilution buffer containing FCS, PBS and Tween® 20, the various hybridoma culture supernatants were added for 1 h at +37° C. The wells were washed four times in a row with Wash Buffer and a secondary anti-mouse antibody coupled to peroxidase was added to the 1:2000 dilution for 1 h at +37° C. The wells were washed four more times and the substrate (OPD (ortho phenylene diamine)+H₂O₂) was added for 30 min at room temperature. A stop solution (H₂SO₄ 4N) was then added and each well was read by measuring the absorbance at 492 nm with a spectrophotometer. The value obtained for the average of the control wells (PBS in the first step) is subtracted from the optical density values obtained for each well.

Assay [2] concerns the target T2, virus-like particles (VLPs) of BK polyomavirus VP-1 protein, serotype IV (BK virus (BKPyV), serotype IV, UniProt P14996 1-362).
T2 construct: native VLPs; also called VLP IV
T2 chain: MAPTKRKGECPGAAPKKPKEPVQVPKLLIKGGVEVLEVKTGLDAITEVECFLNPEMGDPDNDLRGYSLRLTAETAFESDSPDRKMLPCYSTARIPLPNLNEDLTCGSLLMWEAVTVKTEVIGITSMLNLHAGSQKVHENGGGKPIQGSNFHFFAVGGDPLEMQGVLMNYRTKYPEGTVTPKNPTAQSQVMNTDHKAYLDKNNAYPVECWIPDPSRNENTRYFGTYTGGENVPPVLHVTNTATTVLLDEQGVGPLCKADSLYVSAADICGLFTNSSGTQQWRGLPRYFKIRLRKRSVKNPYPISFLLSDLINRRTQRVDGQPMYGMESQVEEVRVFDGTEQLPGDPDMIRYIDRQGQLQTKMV
Put plainly: ELISA on coated VLP; supernatant 1/10.
Description: as §1

The target of assay [3] is T1, virus-like particles (VLPs) of BK …. As to the kind of experiment: ELISA on coated VLP; supernatant 1/640.
Description: as §1
The target in assay [4] is T3, virus-like particles (VLPs) of BK polyomavirus VP-1 protein, serotype Ib2 (BK virus (BKPyV), serotype Ib2, PA …, UniProt P03088 1-362).
T3 construct: native VLPs; also the immunogen; also called VLP Ib2; BK Ib2
T3 chain: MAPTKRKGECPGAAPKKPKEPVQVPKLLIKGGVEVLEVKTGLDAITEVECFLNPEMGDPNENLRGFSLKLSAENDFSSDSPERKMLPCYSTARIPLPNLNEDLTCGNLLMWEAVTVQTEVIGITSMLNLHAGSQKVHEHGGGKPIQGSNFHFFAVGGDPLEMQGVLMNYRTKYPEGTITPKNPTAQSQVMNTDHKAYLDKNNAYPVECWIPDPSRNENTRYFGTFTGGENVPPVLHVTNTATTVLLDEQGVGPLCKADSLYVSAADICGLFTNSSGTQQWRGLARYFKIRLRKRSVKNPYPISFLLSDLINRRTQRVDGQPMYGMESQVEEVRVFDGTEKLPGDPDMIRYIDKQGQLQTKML
Put plainly: ELISA on coated VLP; supernatant 1/640.
Description: as §1

Assay [5] addresses T4, virus-like particles (VLPs) of BK polyomavirus VP-1 protein, serotype II (BK virus (BKPyV), serotype II, UniProt P14996 1-362).
T4 construct: native VLPs; also called VLP II
T4 chain: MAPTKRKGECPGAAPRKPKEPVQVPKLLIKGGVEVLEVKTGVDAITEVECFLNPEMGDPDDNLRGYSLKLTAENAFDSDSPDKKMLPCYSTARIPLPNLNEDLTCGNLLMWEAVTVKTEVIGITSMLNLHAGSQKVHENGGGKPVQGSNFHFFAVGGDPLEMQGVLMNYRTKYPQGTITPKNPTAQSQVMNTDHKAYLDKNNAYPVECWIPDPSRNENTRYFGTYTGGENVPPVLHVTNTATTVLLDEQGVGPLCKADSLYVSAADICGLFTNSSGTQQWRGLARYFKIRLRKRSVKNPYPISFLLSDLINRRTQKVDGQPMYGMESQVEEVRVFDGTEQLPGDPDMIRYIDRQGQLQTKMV
As to the kind of experiment: ELISA on coated VLP; supernatant 1/640.
Description: as §1

Assay [6] concerns the target T2, virus-like particles (VLPs) of BK …. As to the kind of experiment: ELISA on coated VLP; supernatant 1/640.
Description: as §1
Assay [7] concerns the target T1, virus-like particles (VLPs) of BK …. As to the kind of experiment: ELISA on coated VLP; supernatant 1/1 280.
Description: as §1
Assay [8] deals with T3, virus-like particles (VLPs) of BK …. As to the kind of experiment: ELISA on coated VLP; supernatant 1/1 280.
Description: as §1
The target in assay [9] is T2, virus-like particles (VLPs) of BK …. As to the kind of experiment: ELISA on coated VLP; supernatant 1/1 280.
Description: as §1
Assay [10] has as its target T1, virus-like particles (VLPs) of BK …. Put plainly: ELISA on coated VLP; supernatant 1/20 480.
Description: as §1
For assay [11], the target named is T3, virus-like particles (VLPs) of BK …. As to the kind of experiment: ELISA on coated VLP; supernatant 1/20 480.
Description: as §1
In assay [12] the target is T4, virus-like particles (VLPs) of BK …. Put plainly: ELISA on coated VLP; supernatant 1/20 480.
Description: as §1
The target in assay [13] is T2, virus-like particles (VLPs) of BK …. As to the kind of experiment: ELISA on coated VLP; supernatant 1/20 480.
Description: as §1

B1: monoclonal antibody ‘H6’ secreted by clone BK6A2H6 (antibody, V domains shown)
VH: EVQLQQSGPELVKPGASVKISCKASGYSFTGYFMNWVKQSHGKSLEWIGRINPYNGDTFYNQKFKGKATLTVDKSSSTAHMELLSLTSEDSAVYYCGSYYYGDYFDYWGQGTTLTVSS
VL: SIVMTQIPKFLLVSEGDRVTITCKASQSVSNDVAWYQQKSGQSPKLLIYYASNRYTGVPDRFTGSGYGTDFTFTISTVQAEDLAVYFCQQDYSSPLTFGAGTKLELKR
For B1, the “OD 492 nm” value in assay [1] came to 2.99 OD; in assay [2], 3.29 OD; in [3], 2.49 OD; in [4], 0.17 OD; in assay [5], 0.08 OD; in [6], 1.59 OD. Moreover, the “OD 492 nm” value in [7] was found to be 0.81 OD; in assay [8], 0.14 OD; in assay [9], 0.91 OD; in assay [10] it was 0.16 OD; in [11], 0.06 OD; in assay [12], 0.06 OD. Moreover, the “OD 492 nm” value in assay [13] was determined as 0.12 OD.

B2: monoclonal antibody ‘F6’ secreted by clone BK6A2F6 (antibody)
heavy: EVQLQQSGPELVKPGASVKISCKASGYSFTGYFMNWVKQSHGKSLEWIGRINPYNGDTFYNQKFKGKATLTVDKSSSTAHMELLSLTSEDSAVYYCGSYYYGDYFDYWGQGTTLTVSSAKTTPPSVYPLAPGSAAQTNSMVTLGCLVKGYFPEPVTVTWNSGSLSSGVHTFPAVLQSDLYTLSSSVTVPSSTWPSETVTCNVAHPASSTKVDKKIVPRDCGCKPCICTVPEVSSVFIFPPKPKDVLTITLTPKVTCVVVDISKDDPEVQFSWFVDDVEVHTAQTQPREEQFNSTFRSVSELPIMHQDWLNGKEFKCRVNSAAFPAPIEKTISKTKGRPKAPQVYTIPPPKEQMAKDKVSLTCMITDFFPEDITVEWQWNGQPAENYKNTQPIMDTDGSYFVYSKLNVQKSNWEAGNTFTCSVLHEGLHNHHTEKSLSHSPGK
light: […]
Regarding B2, the “OD 492 nm” value in assay [1] turned out to be 3.08 OD; in assay [2] it was 3.25 OD; in [3], 3.07 OD; in assay [4], 0.19 OD; in assay [5], 0.14 OD; in assay [6] it was 2.86 OD. Moreover, the “OD 492 nm” value in assay [7] worked out at 2.11 OD; in [8] it was 0.11 OD; in assay [9] it was 2.04 OD; in [10], 0.27 OD; in [11] it was 0.11 OD; in assay [12], 0.1 OD. Besides, the “OD 492 nm” value in [13] is 0.26 OD.

Source of the values: patent US20220396612A1 (UNIVERSIT DE TOURS, published 2022).
